Like-named read-outs stand apart in the source and are kept apart here.
T1: sIL-6R (soluble IL-6 receptor; SBH Sciences) (human, UniProt P08887 20-365)
T1 construct: also called human IL-6R
T1 sequence: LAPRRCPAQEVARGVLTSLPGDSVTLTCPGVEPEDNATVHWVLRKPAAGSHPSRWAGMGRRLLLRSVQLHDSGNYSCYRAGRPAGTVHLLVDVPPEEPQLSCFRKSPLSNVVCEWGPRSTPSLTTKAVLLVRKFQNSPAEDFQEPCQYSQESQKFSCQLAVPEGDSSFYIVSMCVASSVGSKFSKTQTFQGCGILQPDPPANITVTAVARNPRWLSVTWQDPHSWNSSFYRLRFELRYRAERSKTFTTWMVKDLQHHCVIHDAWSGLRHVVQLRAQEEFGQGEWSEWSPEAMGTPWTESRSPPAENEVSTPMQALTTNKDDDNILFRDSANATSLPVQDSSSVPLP


Key:
[1] = biological target: T1, sIL-6R (soluble IL-6 receptor; SBH …); assay: SPR (BIAcore 3000), antibody on chip, sIL-6R analyte, 25 C
Description: (§1) All SPR measurements were performed on a BIAcore 3000 instrument (GE Biosciences, Piscataway, N.J.). BIAcore Software-BIAcore 3000 Control Software V3.2 was used for the operation and control of the BIAcore 3000 instrument. BiaEvaluation Software V4.1 was used for the analysis of SPR data from the BIAcore 3000 instrument and data was plotted using Graph Pad Prism Software Version 5. […] The indicated antibodies were used as the ligand for the construction of the reference channel of the chip. […] Each sample was injected for 3 min at a flow rate of 30 μL/min to allow for binding to chip-bound antibody. Next, binding buffer without analyte was sent over the chip at the same flow rate to allow for dissociation of bound analyte. After 500s, remaining bound analyte was removed by injecting regeneration solution (1M Formic acid). Data was analyzed by using the Kinetics Wizard and the manual fitting programs that are both included with the BiaEvaluation Software V4.1.

[2] = biological target: T1, sIL-6R (soluble IL-6 receptor; SBH …); assay: SPR (BIAcore 3000), antibody on chip, sIL-6R analyte, pH 6.0
Description: as §1
(§2) SPR measurements at pH 7.4 and pH 6.0 were performed in parallel and KD values calculated according to the protocol as detailed in Example 1. The pH dependence is calculated as the ratio between the KD value at pH 6.0 and the KD value at pH 7.4, which indicates the fold of affinity decrease from the pH7.4 to pH6.0. If the pH dependence of a subject antibody described herein is over 1, it means that the antibody binds to IL-6R in such a pH-dependent manner that its binding to IL-6R at pH7.4 is higher than at pH6.0. If the pH dependence of a subject antibody described herein is lower than 1, it means that the antibody binds to IL-6R in such a pH-dependent manner that its binding to IL-6R at pH6.0 is higher than at pH7.4.

[3] = biological target: T1, sIL-6R (soluble IL-6 receptor; SBH …); assay: SPR; ratio of KD at pH 6.0 to KD at pH 7.4
Description: as §1, §2

[4] = biological target: T1, sIL-6R (soluble IL-6 receptor; SBH …); assay: SPR (BIAcore 3000), antibody on chip, sIL-6R analyte, pH 7.4
Description: as §1, §2

[5] = biological target: T1, sIL-6R (soluble IL-6 receptor; SBH …); assay: SPR (BIAcore 3000), antibody on chip, sIL-6R analyte, pH 6.0; remark: listed apart in the source
Description: as §1, §2

[6] = biological target: T1, sIL-6R (soluble IL-6 receptor; SBH …); assay: SPR (BIAcore 3000), antibody on chip, sIL-6R analyte, 25 C; remark: listed apart in the source
How it was run: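 Antibody immobilized on chip, sIL-6R injected as analyte for 3 min at 30 μL/min, then buffer-only dissociation for 500 s. Surface regenerated with 1M formic acid between cycles. Kinetics obtained by fitting sensorgrams with Kinetics Wizard and manual fitting.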

[7] = biological target: T1, sIL-6R (soluble IL-6 receptor; SBH …); assay: SPR (BIAcore 3000), antibody on chip, sIL-6R analyte, pH 7.4; remark: listed apart in the source
Description: as §1, §2

[8] = biological target: T1, sIL-6R (soluble IL-6 receptor; SBH …); assay: SPR (BIAcore 3000), antibody on chip, sIL-6R analyte, 25 C; remark: listed apart in the source
Description: as §1

| pH dependence (Fold of affinity decrease) [3] [fold] | Kd [5] [nM] | koff [5] [s⁻¹] | kon [5] [M⁻¹ s⁻¹] | Kd [6] [nM] | Relative Affinity [6] | koff [6] [s⁻¹] | kon [6] [M⁻¹ s⁻¹] | Kd [7] [nM] | koff [7] [s⁻¹] | kon [7] [M⁻¹ s⁻¹] | Kd [8] [nM] | Relative Affinity [8] | koff [8] [s⁻¹] | kon [8] [M⁻¹ s⁻¹] | Binder | further results |
| --- | --- | --- | --- | --- | --- | --- | --- | --- | --- | --- | --- | --- | --- | --- | --- | --- |
| 4.59 | – | – | – | – | – | – | – | – | – | – | – | – | – | – | 205# (antibody, human IgG1, kappa, V domains shown) VH: QVQLQESGPGLVRPSQTLSLTCTVSGYSITSDHAWSWVRQPPGRGLEWIGFISYSGMTTYNPSLKSRVTMLRDTSKNQFSLRLSSVTAADTAVYYCARCLARTTAMDYWGQGSLVTVSS VL: DIQMTQSPSSLSASVGDRVTITCRASQDISSYLNWYQQKPGKAPKLLIYYTSRLHSGVPSRFSGSGSGTDFTFTISSLQPEDIATYYCGQGNRLPYTFGQGTKVEIKR | Kd [1]: 0.0122 nM; Relative Affinity [1]: 234 fold vs 25 (Tocilizumab); koff [1]: 2.14e-06 s⁻¹; kon [1]: 175000 M⁻¹ s⁻¹; Kd [2]: 0.056 nM; koff [2]: 2.15e-05 s⁻¹; kon [2]: 384000 M⁻¹ s⁻¹; Kd [4]: 0.0122 nM; koff [4]: 2.14e-06 s⁻¹; kon [4]: 175000 M⁻¹ s⁻¹ |
| 65.5 | 0.0438 | 2.99e-05 | 683000 | 0.000669 | 4720 fold vs 25 (Tocilizumab) | 1.37e-07 | 204000 | 0.000669 | 1.37e-07 | 204000 | – | – | – | – | 209# (antibody, human IgG1, kappa, V domains shown, also called Sample # 209) VH: QVQLQESGPGLVRPSQTLSLTCTVSGYSITSDHAWSWVRQPPGRGLEWIGFISYSGMTTYNPSLKSRVTMLRDTSKNQFSLRLSSVTAADTAVYYCARSLARITAIDFWGQGSLVTVSS VL: DIQMTQSPSSLSASVGDRVTITCRASQDISSYLNWYQQKPGKAPKLLIYYTSRLHSGVPSRFSGSGSGTDFTFTISSLQPEDIATYYCQQGNTLPYTFGQGTKVEIKR | – |
| 95.5 | 0.107 | 3.1e-05 | 291000 | 0.00112 | 2820 fold vs 25 (Tocilizumab) | 1.48e-07 | 132000 | 0.00112 | 1.48e-07 | 132000 | – | – | – | – | 231# (antibody, human IgG1, kappa, V domains shown, also called Sample # 231) VH: QVQLQESGPGLVRPSQTLSLTCTVSGYSITSDHAWSWVRQPPGRGLEWIGYISYSGITTYNPSLKSRVTMLRDTSKNQFSLRLSSVTAADTAVYYCARTLARMTAIDFWGQGSLVTVSS VL: DIQMTQSPSSLSASVGDRVTITCRASQDISSYLNWYQQKPGKAPKLLIYYTSRLHSGVPSRFSGSGSGTDFTFTISSLQPEDIATYYCQQGNTLPYTFGQGTKVEIKR | – |
| – | – | – | – | – | – | – | – | – | – | – | 0.354 | 7.9 fold vs 25 (Tocilizumab) | 9.27e-05 | 262000 | 250# (antibody, human IgG1, kappa, V domains shown, also called Sample # 250) VH: QVQLQESGPGLVRPSQTLSLTCTVSGYSITSDHAWSWVRQPPGRGLEWIGYISYSGMTTYNPSLKSRVTMLRDTSKNQFSLRLSSVTAADTAVYYCARSLARITAMDYWGQGSLVTVSS VL: DIQMTQSPSSLSASVGDRVTITCRASQDISSYLNWYQQKPGKAPKLLIYYTSRLHSGVPSRFSGSGSGTDFTFTISSLQPEDIATYYCQQGNTLPYTFGQGTKVEIKR | – |
| 2.63 | 0.159 | 4.62e-05 | 292000 | 0.0605 | 52.2 fold vs 25 (Tocilizumab) | 1.01e-05 | 166000 | 0.0605 | 1.01e-05 | 166000 | – | – | – | – | 237# (antibody, human IgG1, kappa, V domains shown, also called Sample # 237) VH: QVQLQESGPGLVRPSQTLSLTCTVSGYSITSDHAWSWVRQPPGRGLEWIGYISYSGMTTYNPSLKSRVTMLRDTSKNQFSLRLSSVTAADTAVYYCARCLARTTAMDYWGQGSLVTVSS VL: DIQMTQSPSSLSASVGDRVTITCRASQDISSYLNWYQQKPGKAPKLLIYYTSRLHSGVPSRFSGSGSGTDFTFTISSLQPEDIATYYCGQGNRLPYTFGQGTKVEIKR | – |
| – | – | – | – | – | – | – | – | – | – | – | 0.805 | 3.5 fold vs 25 (Tocilizumab) | 0.00014 | 173000 | 251# (antibody, human IgG1, kappa, V domains shown, also called Sample # 251) VH: QVQLQESGPGLVRPSQTLSLTCTVSGYSITSDHAWSWVRQPPGRGLEWIGYISYSGMITYNPSLKSRVTMLRDTSKNQFSLRLSSVTAADTAVYYCARSLARITAMDYWGQGSLVTVSS VL: DIQMTQSPSSLSASVGDRVTITCRASQDISSYLNWYQQKPGKAPKLLIYYTSRLHSGVPSRFSGSGSGTDFTFTISSLQPEDIATYYCQQGNTLPYTFGQGTKVEIKR | – |

Source: US20190315854A1 (BEIJING VDJBIO, published 2019)
